From patent publication US20240100187A1 (AC IMMUNE, published 2024)
“And” between values parts separate entries of the source, which are not always exact repeats. Equal values may be shown once.

Experiments:
[1] = target: T1, TDP-43 C-terminal peptide called TP-62; experiment: BLI (Octet), TP-62 on streptavidin biosensors, 2-fold dilutions from 100 nM, 30 C
T1 construct: also called TP-62 peptide

[2] = target: T1, TDP-43 C-terminal peptide called TP-62; experiment: BLI (Octet), TP-62 on streptavidin biosensors; range told for the IgG constructs, transfected or vectorized
[3] = target: T1, TDP-43 C-terminal peptide called TP-62; experiment: BLI (Octet), TP-62 peptide loaded at 500 nM on streptavidin biosensors, antibody from 100 nM in 2-fold serial dilutions, 900 s association, 600 s dissociation [cont.]
[4] = target: T2, human full length TDP-43 protein (human, UniProt Q13148 1-414); experiment: indirect ELISA on coated human full length TDP-43, anti-human secondary antibody, absorbance A450nm; apical supernatants of hCMEC/D3 in the OrganoPlate BBB model 3 days after transduction, and purified control antibodies
T2 construct: mature; Coated at 1 ug/ml on ELISA plates; also called hTDP-43 full length (FL) protein; human FL TDP-43
T2 sequence (Q13148 whole entry): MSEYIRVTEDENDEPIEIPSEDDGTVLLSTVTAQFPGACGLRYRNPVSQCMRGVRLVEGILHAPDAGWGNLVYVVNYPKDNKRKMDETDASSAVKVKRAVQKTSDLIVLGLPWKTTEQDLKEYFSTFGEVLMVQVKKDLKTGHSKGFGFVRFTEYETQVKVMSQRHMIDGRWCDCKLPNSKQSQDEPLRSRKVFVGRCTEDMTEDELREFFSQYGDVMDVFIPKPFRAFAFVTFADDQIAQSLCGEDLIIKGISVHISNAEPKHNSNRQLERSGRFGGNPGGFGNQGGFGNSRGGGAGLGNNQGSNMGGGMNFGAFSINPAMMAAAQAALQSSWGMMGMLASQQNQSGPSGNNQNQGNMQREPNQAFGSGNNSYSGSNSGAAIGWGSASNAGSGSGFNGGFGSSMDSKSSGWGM
Protocol: Supernatants from both top lane (apical) and bottom lane (basolateral) were collected 3 days post-transduction and antibody concentrations in the apical and basolateral compartments were determined by binding to human full-length (FL) TDP-43 using an indirect ELISA. In brief, ELISA plate coating with 1 μg/ml human FL TDP-43 was performed overnight in carbonate buffer at 4° C. Plates were washed with 0.05% Tween-20/PBS and then blocked with 1% bovine serum albumin (BSA) in 0.05% Tween-20/PBS for 1 hour at 37° C. Collected antibody-containing supernatants were then added to the plate and incubated for 2 hours at 37° C. after which the plates were washed. […] After the final wash, plates were incubated with pNPP solution and read at 405 nm after 1h using a plate reader (BioTek). […] Supernatants from both apical and basolateral sides were collected 3 days post-transduction and antibody concentrations in the apical and basolateral compartments were determined by binding to human FL TDP-43 using an indirect ELISA as described previously.

B1: MAB1 IgG (anti-TDP-43 antibody, chimeric human IgG1) (antibody, V domains shown)
VH: EVQLQQSGPELVKPGASVKISCKTSGFTFTEYSMHWVKQSHGKSLEWIGGINPNNGGTSYNQKFKGKATLTVDKSSSTAYMELRSLTSEDSAVYYCARESWGQGTTLTVSS
VL: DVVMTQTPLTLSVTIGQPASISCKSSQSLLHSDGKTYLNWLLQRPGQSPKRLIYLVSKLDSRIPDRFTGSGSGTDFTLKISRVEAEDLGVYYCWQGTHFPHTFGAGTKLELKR
notes: Chimeric human IgG1 anti-TDP-43; The IRES and 2 promoter constructs give the same correctly matured protein, whether transfected (CHO) or AAV-vectorized, so they are treated as one molecule; also called MAB1 hIgG1; IgG standard
Kd [1]: 5.7 nM and 4.7 nM and 4.3 nM | Kd [2]: 4 to 6 nM | Kd [3]: ~4.66 nM | koff [3]: 0.000435 s⁻¹ | kon [3]: 170000 M⁻¹ s⁻¹ | binding result [4]: binds
